Assay results reported in patent US20040110930A1.
Values joined by “and” are separate entries in the source; they are usually repeats but may differ in a detail not shown here. Equal entries are not always repeated.

B1: control S1C5 Fab produced from mouse ascites MAb using the ImmunoPure Fab Kit (Fab, V domains shown)
VH: EVKLEQSGAELVKPGASVKISCKASGYTFTDHVIHWVKQRPEQGLEWIGFISPGNGDIRYNEKFKDKATLTADKSSSTAYMQLNSLTSEDSAVYFCKRSFYYYDDNYGDYWGQGTTLTVSS
VL: QIVLTQSPAIMSASLGERVTMTCTASSSVSSSYFHWYQQKPGSSPKLWIYTTSNLASGVPARFSGSGSGTSYSLTISSMEAEDAATYYCHQYHRSPLTFGAGTKLELKR
B2: pLSBC1792 produced S1C5 Fab (Fab, V domains shown)
VH: B1 VH
VL: B1 VL
B3: pLSBC1798 produced S1C5 MAb (antibody, V domains shown)
VH: B1 VH
VL: B1 VL
B4: Control S1C5 MAb from mouse ascites fluid (antibody, V domains shown)
VH: B1 VH
VL: B1 VL

Legend:
38C13 scFv protein [1] = assay: ELISA, coated 38C13 scFv 5 ug/ml; 3.125 ng Fab; background subtracted
38C13 scFv protein [2] = assay: ELISA, coated 38C13 scFv 5 ug/ml; 0.781 ng Fab; background subtracted
38C13 scFv protein [3] = assay: ELISA, coated 38C13 scFv 5 ug/ml; 0.049 ng Fab; background subtracted
38C13 scFv protein [4] = assay: ELISA, coated 38C13 scFv 5 ug/ml; 12.500 ng Fab; background subtracted
38C13 scFv protein [5] = assay: ELISA, coated 38C13 scFv 5 ug/ml; 0.098 ng Fab; background subtracted
38C13 scFv protein [6] = assay: ELISA, coated 38C13 scFv 5 ug/ml; 0.195 ng Fab; background subtracted
38C13 scFv protein [7] = assay: ELISA, coated 38C13 scFv 5 ug/ml; 50.000 ng Fab; background subtracted
38C13 scFv protein [8] = assay: ELISA, coated 38C13 scFv 5 ug/ml; 25.000 ng Fab; background subtracted
38C13 scFv protein [9] = assay: ELISA, coated 38C13 scFv 5 ug/ml; 1.563 ng Fab; background subtracted
38C13 scFv protein [10] = assay: ELISA, coated 38C13 scFv 5 ug/ml; 0.391 ng Fab; background subtracted
38C13 scFv protein [11] = assay: ELISA, coated 38C13 scFv 5 ug/ml; 6.250 ng Fab; background subtracted
38C13 scFv protein [12] = assay: ELISA, coated 38C13 scFv 5 ug/ml; 0.586 ng MAb; background subtracted
38C13 scFv protein [13] = assay: ELISA, coated 38C13 scFv 5 ug/ml; 37.500 ng MAb; background subtracted
38C13 scFv protein [14] = assay: ELISA, coated 38C13 scFv 5 ug/ml; 0.146 ng MAb; background subtracted
38C13 scFv protein [15] = assay: ELISA, coated 38C13 scFv 5 ug/ml; 1.172 ng MAb; background subtracted
38C13 scFv protein [16] = assay: ELISA, coated 38C13 scFv 5 ug/ml; 18.750 ng MAb; background subtracted
38C13 scFv protein [17] = assay: ELISA, coated 38C13 scFv 5 ug/ml; 0.293 ng MAb; background subtracted
38C13 scFv protein [18] = assay: ELISA, coated 38C13 scFv 5 ug/ml; 9.375 ng MAb; background subtracted
38C13 scFv protein [19] = assay: ELISA, coated 38C13 scFv 5 ug/ml; 75.000 ng MAb; background subtracted
38C13 scFv protein [20] = assay: ELISA, coated 38C13 scFv 5 ug/ml; 150.000 ng MAb; background subtracted
38C13 scFv protein [21] = assay: ELISA, coated 38C13 scFv 5 ug/ml; 2.344 ng MAb; background subtracted
38C13 scFv protein [22] = assay: ELISA, coated 38C13 scFv 5 ug/ml; 4.688 ng MAb; background subtracted

Row | Binder | A450 (38C13 scFv protein [1]) | A450 (38C13 scFv protein [2]) | A450 (38C13 scFv protein [3]) | A450 (38C13 scFv protein [4]) | A450 (38C13 scFv protein [5]) | A450 (38C13 scFv protein [6]) | A450 (38C13 scFv protein [7]) | A450 (38C13 scFv protein [8]) | A450 (38C13 scFv protein [9]) | A450 (38C13 scFv protein [10]) | A450 (38C13 scFv protein [11]) | A450 (38C13 scFv protein [12]) | A450 (38C13 scFv protein [13]) | A450 (38C13 scFv protein [14]) | A450 (38C13 scFv protein [15]) | A450 (38C13 scFv protein [16]) | A450 (38C13 scFv protein [17]) | A450 (38C13 scFv protein [18]) | A450 (38C13 scFv protein [19]) | A450 (38C13 scFv protein [20]) | other results
1 | B1 | 0.273 A450 and 0.266 A450 | 0.095 A450 and 0.094 A450 | 0.008 A450 and 0.003 A450 | 0.46 A450 and 0.465 A450 | 0.009 A450 and 0.018 A450 | 0.03 A450 and 0.023 A450 | 0.481 A450 and 0.516 A450 | 0.498 A450 and 0.51 A450 | 0.168 A450 and 0.171 A450 | 0.047 A450 and 0.05 A450 | 0.346 A450 and 0.363 A450 | – | – | – | – | – | – | – | – | – | –
2 | B2 | 0.366 A450 and 0.35 A450 | 0.168 A450 and 0.154 A450 | 0.01 A450 and 0.011 A450 | 0.487 A450 and 0.485 A450 | 0.025 A450 and 0.019 A450 | 0.049 A450 and 0.041 A450 | 0.524 A450 and 0.504 A450 | 0.521 A450 and 0.519 A450 | 0.263 A450 and 0.247 A450 | 0.09 A450 and 0.094 A450 | 0.468 A450 and 0.449 A450 | – | – | – | – | – | – | – | – | – | –
3 | B3 | – | – | – | – | – | – | – | – | – | – | – | 0.03 A450 and 0.029 A450 | 0.477 A450 and 0.482 A450 | 0.007 A450 and 0.004 A450 | 0.061 A450 | 0.39 A450 and 0.397 A450 | 0.014 A450 and 0.015 A450 | 0.295 A450 and 0.307 A450 | 0.514 A450 and 0.517 A450 | 0.521 A450 and 0.52 A450 | A450 (38C13 scFv protein [21]): 0.106 A450 and 0.113 A450; A450 (38C13 scFv protein [22]): 0.198 A450 and 0.194 A450
4 | B4 | – | – | – | – | – | – | – | – | – | – | – | 0.053 A450 and 0.047 A450 | 0.443 A450 and 0.497 A450 | 0.012 A450 and 0.01 A450 | 0.105 A450 and 0.096 A450 | 0.476 A450 and 0.429 A450 | 0.025 A450 and 0.023 A450 | 0.39 A450 and 0.395 A450 | 0.532 A450 and 0.515 A450 | 0.517 A450 and 0.538 A450 | A450 (38C13 scFv protein [21]): 0.18 A450 and 0.179 A450; A450 (38C13 scFv protein [22]): 0.283 A450 and 0.284 A450
